Experimental data: doi:10.1101/2021.08.02.453806

Target: MBP-PPM-1.D-10xHIS (C. elegans)
Assay: pull-down

B1: GST-CHK-2-3xFLAG (enzyme)
chain: MVRGTKRRRSSAEKPIVVVPVTRDDTMPVDEDLVVGESQCAASKPFAKLVGVRRGISSIDLADDHFVCGRGSDDAPTNFNFSQVAKDVGLYRFISKIQFSIDRDTETRRIYLHDHSRNGTLVNQEMIGKGLSRELMNGDLISIGIPALIIFVYESADADHHPEELTKKYHVTSHSLGKGGFGKVLLGYKKSDRSVVAIKQLNTQFSTRCSRAIAKTRDIRNEVEVMKKLSHPNIVAIYDWITVAKYSYMVIEYVGGGEFFSKVVDSKYNRMGLGESLGKYFAFQLIDAILYLHSVGICHRDIKPENILCSDKAERCILKLTDFGMAKNSVNRMKTRCGTPSYNAPEIVANEGVEYTPKVDIWSLGCVLFITFSGYPPFSEEYTDMTMDEQVLTGRLIFHAQWRRITVETQNMIKWMLTVEPSNRPSAVELMSTQWMKCADCRTAKQDILKSIKPISAAAPAALQTTQAGPVKKAKM
- fold CHK-2 pulled down, normalized, relative to truncated PPM-1.D: 20 fold
